We go through eight molecules from paper PMC4058522, “Structural Basis for Phosphorylation-Dependent Recruitment of Tel2 to Hsp90 by Pih1” (Structure(London, England:1993), 2014).

The chains are these.
B1: human Spagh/RPAP3 120-395 (tandem TPR region) (domain or fragment, UniProt Q9H6T3 120-395, looked up)
chain: ESEEDGIHVDSQKALVLKEKGNKYFKQGKYDEAIDCYTKGMDADPYNPVLPTNRASAYFRLKKFAVAESDCNLAVALNRSYTKAYSRRGAARFALQKLEEAKKDYERVLELEPNNFEATNELRKISQALASKENSYPKEADIVIKSTEGERKQIEAQQNKQQAISEKDRGNGFFKEGKYERAIECYTRGIAADGANALLPANRAMAYLKIQKYEEAEKDCTQAILLDGSYSKAFARRGTARTFLGKLNEAKQDFETVLLLEPGNKQAVTELSKIKK
notes: Spagh/RPAP3, human, residues 120-395, tandem TPR region; GST fusion with a PreScission site; also called Spagh/RPAP3-TPR2 (label of the tandem region in the text); wild-type Spagh/RPAP3
B2: Spagh/RPAP3 120-395 N172E (domain or fragment, human, UniProt Q9H6T3 120-395, looked up)
chain: ESEEDGIHVDSQKALVLKEKGNKYFKQGKYDEAIDCYTKGMDADPYNPVLPTERASAYFRLKKFAVAESDCNLAVALNRSYTKAYSRRGAARFALQKLEEAKKDYERVLELEPNNFEATNELRKISQALASKENSYPKEADIVIKSTEGERKQIEAQQNKQQAISEKDRGNGFFKEGKYERAIECYTRGIAADGANALLPANRAMAYLKIQKYEEAEKDCTQAILLDGSYSKAFARRGTARTFLGKLNEAKQDFETVLLLEPGNKQAVTELSKIKK
notes: Spagh/RPAP3, human, residues 120-395, N172E in TPR1; also called N172E-TPR1 mutant
B3: Spagh/RPAP3 120-395 N321E (domain or fragment, human, UniProt Q9H6T3 120-395, looked up)
chain: ESEEDGIHVDSQKALVLKEKGNKYFKQGKYDEAIDCYTKGMDADPYNPVLPTNRASAYFRLKKFAVAESDCNLAVALNRSYTKAYSRRGAARFALQKLEEAKKDYERVLELEPNNFEATNELRKISQALASKENSYPKEADIVIKSTEGERKQIEAQQNKQQAISEKDRGNGFFKEGKYERAIECYTRGIAADGANALLPAERAMAYLKIQKYEEAEKDCTQAILLDGSYSKAFARRGTARTFLGKLNEAKQDFETVLLLEPGNKQAVTELSKIKK
notes: Spagh/RPAP3, human, residues 120-395, N321E in TPR2; also called N321E-TPR2 mutant
B6: Tah1p-Pih1p 187-344 complex (complex, yeast)
chain 1: MSQFEKQKEQGNSLFKQGLYREAVHCYDQLITAQPQNPVGYSNKAMALIKLGEYTQAIQMCQQGLRYTSTAEHVAIRSKLQYRLELAQGAVGSVQIPVVEVDELPEGYDRS
chain 2: HKIIEEEAGDPMSILRGRNDDGDDNNDPDDGTLPPLFPIENKISGAKIEEIDKNEIAHRNLKQAPAPAPAPHEQQEDVPEYEVKMKRFKGAAYKLRILIENKAPNSKPDRFSPSYNFAENILYINGKLSIPLPRDIVVNAADIKIFHIRKERTLYIYI
notes: Tah1, S. cerevisiae, full length; also called Tah1-Pih1-CS heterodimer
B7: dimeric C-terminal domain of Hsp90 (Hsp90 600-709) (domain or fragment)
chain: not shown
notes: Hsp90 residues 600-709, dimeric C-terminal domain; also called cHsp90; C-Hsp90

Conditions in all cases: both partners purified
Experiment [1] deals with T1, His6-Hsp90β (human, UniProt P08238 1-724).
T1 construct: Hsp90 beta, human; also called His-tagged Hsp90; human Hsp90β
T1 sequence (P08238 whole entry): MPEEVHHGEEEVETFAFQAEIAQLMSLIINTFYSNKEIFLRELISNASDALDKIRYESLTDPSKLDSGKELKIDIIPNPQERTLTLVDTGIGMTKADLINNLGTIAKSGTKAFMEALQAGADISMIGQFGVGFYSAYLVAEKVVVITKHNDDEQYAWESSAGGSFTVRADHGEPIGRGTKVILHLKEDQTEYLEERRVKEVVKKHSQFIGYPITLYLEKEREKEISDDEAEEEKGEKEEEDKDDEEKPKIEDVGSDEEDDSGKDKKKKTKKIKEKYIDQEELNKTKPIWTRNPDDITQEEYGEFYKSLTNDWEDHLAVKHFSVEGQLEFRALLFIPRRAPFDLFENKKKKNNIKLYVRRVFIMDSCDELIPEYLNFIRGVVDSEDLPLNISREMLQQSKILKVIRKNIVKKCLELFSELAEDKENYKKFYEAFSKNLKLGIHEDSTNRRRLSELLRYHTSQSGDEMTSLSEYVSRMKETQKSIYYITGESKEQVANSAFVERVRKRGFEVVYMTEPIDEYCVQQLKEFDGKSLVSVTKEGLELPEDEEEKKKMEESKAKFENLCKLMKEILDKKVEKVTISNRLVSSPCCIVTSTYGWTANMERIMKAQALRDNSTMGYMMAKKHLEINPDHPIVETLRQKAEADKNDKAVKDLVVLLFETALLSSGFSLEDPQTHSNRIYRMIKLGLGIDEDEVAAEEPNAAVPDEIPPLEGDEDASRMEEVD
Description: pull-down; His6-Hsp90β as bait, Spagh/RPAP3 120-395 tandem TPR segment (wild type and mutants) as prey.

Experiment [2] concerns the target T2, mouse Pih1 PIH domain 1-200 (His-mPih1 1-200) (mouse, UniProt Q9CQJ2 1-200).
T2 construct: Pih1 (Pih1D1), mouse, residues 1-200; SeMet protein was used for the crystal structure 4CKT; The ITC methods say only 'Pih1' / 'mPIH domain'; also called mPIH domain; Pih1D1
Kind of experiment: ITC; peptides at 350 μM injected into 30 μM Pih1 (mPIH domain) at 30°C; 20 mM Tris pH 7.5, 5 mM NaCl.

For experiment [3], the target named is B7. Description: SEC; calibrated gel-filtration column; cHsp90, Tah1-Pih1p 187-344 and their mixture. Background: SEC sorts molecules by how far they enter the pores of the column.
Experiment [4] has as its target T3, FLAG-tagged Tah1 (yeast, UniProt P25638 1-111).
T3 construct: Tah1p, S. cerevisiae; also called FLAG-Tah1; Flag-Tah1p
T3 sequence: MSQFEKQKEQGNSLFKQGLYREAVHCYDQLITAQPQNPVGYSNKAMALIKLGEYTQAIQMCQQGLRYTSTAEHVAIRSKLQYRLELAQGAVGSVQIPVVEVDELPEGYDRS
Kind of experiment: co-IP; 70 μM Flag-Tah1p, Hsp90 600-709 and increasing concentrations of Cpr6 in 20 mM HEPES pH 7.5, 150 mM NaCl, 10% glycerol, 0.5% Igepal, 2 mM EDTA; Anti-Flag M2 magnetic beads; SDS-PAGE.

For experiment [5], the target named is T4, Cpr6 (monomeric TPR-domain Hsp90 cochaperone) (UniProt P53691 1-371).
T4 construct: Cpr6, TPR-domain Hsp90 cochaperone
T4 sequence (P53691 whole entry): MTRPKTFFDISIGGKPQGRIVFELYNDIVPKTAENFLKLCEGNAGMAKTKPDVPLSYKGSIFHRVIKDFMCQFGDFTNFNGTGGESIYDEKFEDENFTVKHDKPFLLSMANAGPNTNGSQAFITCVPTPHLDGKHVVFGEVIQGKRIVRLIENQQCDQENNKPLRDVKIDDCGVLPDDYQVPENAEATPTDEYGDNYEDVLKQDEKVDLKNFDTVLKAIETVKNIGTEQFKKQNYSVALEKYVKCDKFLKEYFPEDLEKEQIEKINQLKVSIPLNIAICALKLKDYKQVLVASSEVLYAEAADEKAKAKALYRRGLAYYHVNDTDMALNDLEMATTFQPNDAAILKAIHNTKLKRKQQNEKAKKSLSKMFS
The experiment is described as above.

In experiment [6] the target is B6. Description: SEC; calibrated gel-filtration column; cHsp90, Tah1-Pih1p 187-344 and their mixture.
The target in experiment [7] is T5, Tah1 (yeast, full-length) (yeast, UniProt P25638 1-111).
T5 construct: Tah1, S. cerevisiae, full length (C-terminal residue Ser 111); Selenomethionine-labelled Tah1 was used for the crystal structure; also called Tah1p; SeMetTah1
T5 sequence (looked up): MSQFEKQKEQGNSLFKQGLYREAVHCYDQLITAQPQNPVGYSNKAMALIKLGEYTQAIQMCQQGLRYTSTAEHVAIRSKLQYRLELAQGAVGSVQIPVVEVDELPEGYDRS
Described as above.

Experiment [8] concerns the target B1. Description: ITC; 2 mM … injected into 80 μM Spagh/RPAP3 120-395; 10 mM Tris pH 7.5, 5 mM NaCl; 10°C; two site fitting. A general note: In ITC the heat of successive injections is recorded.
Experiment [9] addresses B1. Kind of experiment: ITC; 2 mM … injected into 80 μM Spagh/RPAP3 120-395; 10 mM Tris pH 7.5, 5 mM NaCl; 30°C; two site fitting.
The target in experiment [10] is B3. Kind of experiment: ITC; 2 mM … injected into 80 μM Spagh/RPAP3 120-395 mutants (N172E, N321E, N172E-N321E); 10 mM Tris pH 7.5, 5 mM NaCl; temperature not given; two site model.
For experiment [11], the target named is B2. The description is as above.

Square brackets hold non-standard residues; d marks the D form. Ends that are not written are not given here. pT = C[C@@H](OP(=O)(O)O)[C@H](N)C(=O)O; pS = N[C@@H](COP(=O)(O)O)C(=O)O

T2 sequence (Q9CQJ2 1-200): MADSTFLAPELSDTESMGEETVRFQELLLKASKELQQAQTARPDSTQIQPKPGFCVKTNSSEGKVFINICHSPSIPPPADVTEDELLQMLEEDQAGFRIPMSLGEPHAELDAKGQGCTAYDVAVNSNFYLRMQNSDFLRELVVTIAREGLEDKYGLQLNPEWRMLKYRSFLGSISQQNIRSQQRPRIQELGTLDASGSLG

Take B1: the binding result in [1] is reported as “binds”.

As to B2, in experiment [1], the binding result is “binds”.

Regarding B3, the binding result in [1] is reported as “binds”.

B4: Mre11 phosphopeptide MANDpSDDSI (peptide)
peptide: MAND[pS]DDSI
notes: Mre11, phosphorylation site 554-MANDpSDDSIS-563 found among sites in human proteins
What is called Kd is a measure of binding affinity in units of concentration. High values mean lower affinity, low ones higher affinity. Consider B4, for which the affinity in experiment [2], expressed as Kd, was 6.4 µM.

B5: Tel2 peptide with pSer492 replaced by phosphothreonine (peptide)
peptide: QGSDSELD[pT]DDEF
notes: also called phosphothreonine Tel2 peptide
For the molecule B5, the Kd in experiment [2] worked out at 45.7 µM.

Broadly, the stoichiometry N is a count of units in the complex or per binding partner. In the case of B6, the “stoichiometry N” value in [3] is 1 Tah1-Pih1 heterodimer per cHsp90 chain (2:2:2).

Turning to B7, the binding result in experiment [4], in [5], in [6] and in [7] was “binds” in each case.

B8: human Hsp90 C-terminal peptide DDTSRMEEVD (peptide)
peptide: DDTSRMEEVD
notes: human Hsp90 C-terminal peptide; also called C-terminal Hsp90 peptide
For B8, in experiment [8], the “KD of the moderate-affinity site (two site fitting)” value amounted to 24 µM and the “KD of the tight site (two site fitting)” value worked out at 1 µM. Besides, in [9], the “KD of the moderate-affinity site (two site fitting)” value turned out to be 23.6 µM, the “KD of the tight site (two site fitting)” value is 1.49 µM and the “stoichiometry N” value is about 2 peptides per Spagh/RPAP3. Also, the “KD of the TPR1 site (non-mutated; two site model)” value in [10] was 0.94 µM. In [11], the “KD of the TPR1 site (mutated; two site model)” value was about 231 µM.
